Literature values as cited in paper PMC5176006.
pKd: −log10 of the molar value.

Molecular target: IscU (Escherichia coli) (UniProt P0ACD4)
Chain of UniProt P0ACD4 (P0ACD4 whole entry): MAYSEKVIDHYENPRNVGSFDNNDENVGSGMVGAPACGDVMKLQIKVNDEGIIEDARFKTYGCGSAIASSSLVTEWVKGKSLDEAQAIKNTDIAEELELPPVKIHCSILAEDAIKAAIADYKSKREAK

## IscS (from UniProt P0A6B7)
  pKd: 6.00
